Experimental data taken from patent US11402384B2 (Duke University, priority 2015, dated 2022).
“Also recorded” adds a separate entry of the source.

B1: E13C Acrylodan: tsGBP2_C13 (SEQ ID NO: 20) Acrylodan conjugate (conjugate)
chain: MKLEIFSWWAGDCGPALEALIRLYKQKYPGVEVINATVTGGAGVNAKAVLKTRMLGGDPPDTFQVHAGQELIGTWVVADRMEDLTSLFRQEGWLQAFPKGLIDLLSYKGGIWSVPVNIHRSNVMWYIPAKLKEWGVTPPKTWAEFLATAQTLKRKGLEAPLALGENWTQQHLWESVALATLGADGWNNLWSGKLKFTDPKAVAVWETFGKVLDAANKDAAGLSWQQAVDRVVQGKAAFNIMGDWAAGYMSTTLKLKPGTDFAWTPSPGTSGIFMMLSDSFGLPKGAKNRQNAINWLKLVGSKEGQDTFNPLKGSIAARLDSDPAKYNAYGQSAMKDWKSNRIVGSLVHGAVAPESFMSQFGTVMEIFLQSRNPQAAANAAQAIANQVGLGRGGSHHHHHH
modifications: Acrylodan conjugate; tsGBP2_C13 (13C substitution mutant with signal peptide replaced with M and a GGSHHHHHH at C-terminus)
B2: D12C Acrylodan: tsGBP2_C12 (SEQ ID NO: 19) Acrylodan conjugate (conjugate)
chain: MKLEIFSWWAGCEGPALEALIRLYKQKYPGVEVINATVTGGAGVNAKAVLKTRMLGGDPPDTFQVHAGQELIGTWVVADRMEDLTSLFRQEGWLQAFPKGLIDLLSYKGGIWSVPVNIHRSNVMWYIPAKLKEWGVTPPKTWAEFLATAQTLKRKGLEAPLALGENWTQQHLWESVALATLGADGWNNLWSGKLKFTDPKAVAVWETFGKVLDAANKDAAGLSWQQAVDRVVQGKAAFNIMGDWAAGYMSTTLKLKPGTDFAWTPSPGTSGIFMMLSDSFGLPKGAKNRQNAINWLKLVGSKEGQDTFNPLKGSIAARLDSDPAKYNAYGQSAMKDWKSNRIVGSLVHGAVAPESFMSQFGTVMEIFLQSRNPQAAANAAQAIANQVGLGRGGSHHHHHH
modifications: Acrylodan conjugate; tsGBP2_C12 (12C substitution mutant with signal peptide replaced with M and a GGSHHHHHH at C-terminus)
B3: G41C Badan: tsGBP2_C41 (SEQ ID NO: 21) Badan conjugate (conjugate)
chain: MKLEIFSWWAGDEGPALEALIRLYKQKYPGVEVINATVTGCAGVNAKAVLKTRMLGGDPPDTFQVHAGQELIGTWVVADRMEDLTSLFRQEGWLQAFPKGLIDLLSYKGGIWSVPVNIHRSNVMWYIPAKLKEWGVTPPKTWAEFLATAQTLKRKGLEAPLALGENWTQQHLWESVALATLGADGWNNLWSGKLKFTDPKAVAVWETFGKVLDAANKDAAGLSWQQAVDRVVQGKAAFNIMGDWAAGYMSTTLKLKPGTDFAWTPSPGTSGIFMMLSDSFGLPKGAKNRQNAINWLKLVGSKEGQDTFNPLKGSIAARLDSDPAKYNAYGQSAMKDWKSNRIVGSLVHGAVAPESFMSQFGTVMEIFLQSRNPQAAANAAQAIANQVGLGRGGSHHHHHH
modifications: Badan conjugate; tsGBP2_C41 (41C substitution mutant with signal peptide replaced with M and a GGSHHHHHH at C-terminus)
B4: W244C Acrylodan: tsGBP2_C244 (SEQ ID NO: 30) Acrylodan conjugate (conjugate)
chain: MKLEIFSWWAGDEGPALEALIRLYKQKYPGVEVINATVTGGAGVNAKAVLKTRMLGGDPPDTFQVHAGQELIGTWVVADRMEDLTSLFRQEGWLQAFPKGLIDLLSYKGGIWSVPVNIHRSNVMWYIPAKLKEWGVTPPKTWAEFLATAQTLKRKGLEAPLALGENWTQQHLWESVALATLGADGWNNLWSGKLKFTDPKAVAVWETFGKVLDAANKDAAGLSWQQAVDRVVQGKAAFNIMGDCAAGYMSTTLKLKPGTDFAWTPSPGTSGIFMMLSDSFGLPKGAKNRQNAINWLKLVGSKEGQDTFNPLKGSIAARLDSDPAKYNAYGQSAMKDWKSNRIVGSLVHGAVAPESFMSQFGTVMEIFLQSRNPQAAANAAQAIANQVGLGRGGSHHHHHH
modifications: Acrylodan conjugate; tsGBP2_C244 (244C substitution mutant with signal peptide replaced with M and a GGSHHHHHH at C-terminus)
B5: A42C Acrylodan: tsGBP2_C42 (SEQ ID NO: 22) Acrylodan conjugate (conjugate)
chain: MKLEIFSWWAGDEGPALEALIRLYKQKYPGVEVINATVTGGCGVNAKAVLKTRMLGGDPPDTFQVHAGQELIGTWVVADRMEDLTSLFRQEGWLQAFPKGLIDLLSYKGGIWSVPVNIHRSNVMWYIPAKLKEWGVTPPKTWAEFLATAQTLKRKGLEAPLALGENWTQQHLWESVALATLGADGWNNLWSGKLKFTDPKAVAVWETFGKVLDAANKDAAGLSWQQAVDRVVQGKAAFNIMGDWAAGYMSTTLKLKPGTDFAWTPSPGTSGIFMMLSDSFGLPKGAKNRQNAINWLKLVGSKEGQDTFNPLKGSIAARLDSDPAKYNAYGQSAMKDWKSNRIVGSLVHGAVAPESFMSQFGTVMEIFLQSRNPQAAANAAQAIANQVGLGRGGSHHHHHH
modifications: Acrylodan conjugate; tsGBP2_C42 (42C substitution mutant with signal peptide replaced with M and a GGSHHHHHH at C-terminus)
B6: G41C Acrylodan: tsGBP2_C41 (SEQ ID NO: 21) Acrylodan conjugate (conjugate)
chain: MKLEIFSWWAGDEGPALEALIRLYKQKYPGVEVINATVTGCAGVNAKAVLKTRMLGGDPPDTFQVHAGQELIGTWVVADRMEDLTSLFRQEGWLQAFPKGLIDLLSYKGGIWSVPVNIHRSNVMWYIPAKLKEWGVTPPKTWAEFLATAQTLKRKGLEAPLALGENWTQQHLWESVALATLGADGWNNLWSGKLKFTDPKAVAVWETFGKVLDAANKDAAGLSWQQAVDRVVQGKAAFNIMGDWAAGYMSTTLKLKPGTDFAWTPSPGTSGIFMMLSDSFGLPKGAKNRQNAINWLKLVGSKEGQDTFNPLKGSIAARLDSDPAKYNAYGQSAMKDWKSNRIVGSLVHGAVAPESFMSQFGTVMEIFLQSRNPQAAANAAQAIANQVGLGRGGSHHHHHH
modifications: Acrylodan conjugate; tsGBP2_C41 (41C substitution mutant with signal peptide replaced with M and a GGSHHHHHH at C-terminus)
B7: D12C Badan: tsGBP2_C12 (SEQ ID NO: 19) Badan conjugate (conjugate)
chain: MKLEIFSWWAGCEGPALEALIRLYKQKYPGVEVINATVTGGAGVNAKAVLKTRMLGGDPPDTFQVHAGQELIGTWVVADRMEDLTSLFRQEGWLQAFPKGLIDLLSYKGGIWSVPVNIHRSNVMWYIPAKLKEWGVTPPKTWAEFLATAQTLKRKGLEAPLALGENWTQQHLWESVALATLGADGWNNLWSGKLKFTDPKAVAVWETFGKVLDAANKDAAGLSWQQAVDRVVQGKAAFNIMGDWAAGYMSTTLKLKPGTDFAWTPSPGTSGIFMMLSDSFGLPKGAKNRQNAINWLKLVGSKEGQDTFNPLKGSIAARLDSDPAKYNAYGQSAMKDWKSNRIVGSLVHGAVAPESFMSQFGTVMEIFLQSRNPQAAANAAQAIANQVGLGRGGSHHHHHH
modifications: Badan conjugate; tsGBP2_C12 (12C substitution mutant with signal peptide replaced with M and a GGSHHHHHH at C-terminus)
B8: E13C Badan: tsGBP2_C13 (SEQ ID NO: 20) Badan conjugate (conjugate)
chain: MKLEIFSWWAGDCGPALEALIRLYKQKYPGVEVINATVTGGAGVNAKAVLKTRMLGGDPPDTFQVHAGQELIGTWVVADRMEDLTSLFRQEGWLQAFPKGLIDLLSYKGGIWSVPVNIHRSNVMWYIPAKLKEWGVTPPKTWAEFLATAQTLKRKGLEAPLALGENWTQQHLWESVALATLGADGWNNLWSGKLKFTDPKAVAVWETFGKVLDAANKDAAGLSWQQAVDRVVQGKAAFNIMGDWAAGYMSTTLKLKPGTDFAWTPSPGTSGIFMMLSDSFGLPKGAKNRQNAINWLKLVGSKEGQDTFNPLKGSIAARLDSDPAKYNAYGQSAMKDWKSNRIVGSLVHGAVAPESFMSQFGTVMEIFLQSRNPQAAANAAQAIANQVGLGRGGSHHHHHH
modifications: Badan conjugate; tsGBP2_C13 (13C substitution mutant with signal peptide replaced with M and a GGSHHHHHH at C-terminus)

Assay: Ratiometric fluorescence glucose titration of fluorescent conjugates
Type: binding
Parameters: key to Shape (fluorescence response to glucose) / Change (fluorescence response to glucose): m, monochromatic; d, dichromatic (i.e. spectral shape change); 0, no change
Conditions: for fluorescence response to glucose: monochromatic or dichromatic emission change
Source text: Semi-synthetic FRSs can be engineered by site-specifically attaching thiol-reactive, environmentally sensitive fluorophores that respond to ligand-mediated conformational changes. Identification of FRS candidates that can be used for sensing applications comprises three steps: • 1. Cysteine scan. Mutant glucose-binding proteins containing single cysteines are constructed for site-specific attachment of thiol-reactive fluorophores. […] Candidate positions fall into three classes: endosteric, replacing a residue that contacts the ligand directly; peristeric, located at the rim of the binding site; allosteric (Marvin et al., 1997, Proc Natl Acad Sci USA, 94, 4366-71; Marvin, 1998, J Am Chem Soc, 120, 7-11), located outside the binding site at sites that undergo local structural changes in concert with the hinge-bending motion. • 2. Fluorophore screening. Thiol-reactive, environmentally sensitive fluorophores are attached to each cysteine mutant prepared in step 1. • 3. Evaluation of the glucose-mediated change of all the fluorescent conjugates prepared in step 2. Responses to ligand binding in which there is both a change in fluorescence emission intensity and spectral shape are essential for chemometric applications, because such changes enable ratiometric measurements. Changes in spectral shape typically are accompanied by a shift in the wavelength of the emission intensity maxima. Three classes of fluorescent responses are possible: • i. No response. • ii. Monochromatic response (emission intensity increases or decreases without a change in spectral shape) • iii.
Determination of temperature- and ligand-dependent fluorescence landscapes. […] Temperatures were advanced in 1K steps.
Determination of emission intensity spectra.
2 For a single glucose-binding site, the fractional saturation is given by […]

[1] = tsGBP2 cysteine scan, Acrylodan conjugate
[2] = ttGBP1 homologs, 13C-equivalent mutants labeled with Acrylodan or Badan
[3] = tsGBP2 cysteine scan, Badan conjugate

Row | Molecule | Shape (fluorescence response to glucose) [1] | Shape (fluorescence response to glucose) [3] | other results
1 | B1 | d |  | fluorescence response to glucose (listed as 13C.Acrylodan conjugate): strong dichromatic response; also recorded: strongest dichromatic response; fluorescence response to glucose (listed as Acrylodan conjugate attached to E13C): largest, wavelength-dependent changes in fluorescence emission intensities; Shape (fluorescence response to glucose) [2]: d
2 | B2 | m |  | 
3 | B3 |  | m | 
4 | B4 | m |  | fluorescence response to glucose: strong monochromatic response
5 | B5 | 0 |  | 
6 | B6 | d |  | 
7 | B7 |  | m | 
8 | B8 |  | m | Change (fluorescence response to glucose) (tsGBP 13C affinity mutants, Acrylodan or Badan conjugates): m/d; Shape (fluorescence response to glucose) [2]: m
